For 3 proteins, Km results are on record in paper PMC8354476, “Acyl-CoA oxidase ACOX-1 interacts with a peroxin PEX-5 to play roles in larval development of Haemonchus contortus” (PLoS Pathogens, 2021).

Substrate in this data set: CCCCCCCCCCCCCCCC(=O)SCCNC(=O)CCNC(=O)[C@H](O)C(C)(C)COP(=O)(O)OP(=O)(O)OC[C@H]1O[C@@H](n2cnc3c(N)ncnc32)[C@H](O)[C@@H]1OP(=O)(O)O
The experiment in a line: purified protein. Type of data set: biochemical, Haemonchus contortus. The note with it: 10 μM FAD, 50 mM potassium phosphate.

[1] abbreviates: pH 7.5, 42°C (optimum conditions).

B1: rHc-ACOX-1.2 (Haemonchus contortus) (protein)
chain: MPFRGITVGDIGPKMAYNGVDNGFLAFHHYRIPRNNMLMKHVKVTPDGKYVPPAHAKVGYSAMVHVRAHMISTQAAFLAQALTTAIRYSAIRRQGEIQPGQGEVKILEYQTQQHRLFPQLARAYAFIFTGQAVRVIFQRVQKDVARGKVDEMAKLHYISSGLKAVVTYLTGQGIEQARMSCGGHGYSKASNMSELYGVAIGGATYEGENMVMLQQLARYLMKSAEAAKSGRAVGKLVDYLVRSSEQRSAIDRQPDHDYSAHLKAFDKAAKLQVMKAYERMQSLRAQGLLEEEAWNANAVELNRAARVHTRQYIARTFDEHVKAVVHGPCREVLLDLLHLHLNYELLDMAYYLLEDGYLSGQQLDYMKEDMYRLLARLRPNIVSLVDSWDFSDHELRSVLGRRDGHVYENLYKWAQESELNRTQVLPTFEKYLKPMMKQAREQSKL
notes: N-terminal FLAG tag, pcDNA3.1, expressed in HEK293T cells, purified on anti-FLAG magnetic beads; locus chromosome IV: 9789018-9796292; Glu206 active site; C-terminal PTS1 (SKL)
B1: the Km – broadly, the concentration of substrate that gives half-maximal velocity – under setting [1] was 6.83 µM.

B2: rHc-ACOX-1.1 (Haemonchus contortus) (protein)
chain: MPLNKLLRDGDNEDLAEERRKATFDTDEMAAIIWEGKERVRRRREITKKVNEYTELHDPYCQAFMTRHEEVENAARKITKMFSLIDKLGVNPTNAADMAHLTSEVIGLYGHPLALHAVMFIPSLQAQCADDQMHWLKKAMSRQIIGTYAQTELGHGTNLRKLETTATHDANTQEFVLHSPTRTAMKWWPGNLGKSANHAVVVACLIIDGKNYGPHNFIVPLRDPETHMPLKGITVGDIGPKMATGPVDNGFLSFDHYRIPRTNMLMKHAKVTPEGKYIPPAHAKVGYSAMVHVRSHMISDQAKFLAQALTTAIRYSAIRRQGEIQPGDGEVKILEYQTQQYRLLPQLARAYAFSFTGRAVRDLYLRVQKDVAKGKVDEMAELHYITSGLKAVVTHLTGEGISQARMSCGGHGYSKASNMPDLYGIAVADCTYEGENMVMLQQLARYLMRAAGEAEKGRALGRLVNYLVEPSDIHSSIDRQLDYDYKAHLKAFDKAAKLQVMKAYERMRALKAQGLSEEDAWNANAVELNRAARVHTRQYIAHQFYEQVSSVTDGRCREVPRDLLHLHLNYEILDMAYYLLEDGFLSGQQMDYMKEDMYRLLAKLRPNAVSLVDSWDISDHELRSVLGRRDGHVYENLYKWAQESELNRTQVLPTFEKYLKPMMMEAHAQSKL
notes: full-length transcript 2019 nt; N-terminal FLAG tag, pcDNA3.1, expressed in HEK293T cells, purified on anti-FLAG magnetic beads; locus chromosome IV: 9780094-9786809; Thr151, Gly190, Glu433 predicted sites; C-terminal PTS1 (SKL)
Consider B2, for which the Michaelis constant (Km) (pH 7.5, 37°C (optimum conditions)) was found to be 78.79 µM.

B3: rHc-ACOX-1.3 (Haemonchus contortus) (protein)
chain: MPFRGITVGDIGPKMAYNGVDNGFLAFDHYRIPRNNMLMKHVKVTPEGKYVPPAHAKVGYSAMVHVRAHMISTQAAFLAQALTTAIRYSAIRRQGEIQPGRGEVKILEYQTQQHRLFPQLARAYAFIFTGQAVRVIFQRVQKDVARGKVDEMAELHYISSGLKAVVTYLTGQGIEQARMSCGGHGYSKASNMSELYGVAIGGATYEGENMVMLQQLARYLMKSAEAAKNGRAVGKLVDYLVRSSEQRSAIDRKPDHDYTAHLKAFDKAAKLQVMKAYERMQSLRARGLTEEEAWNANAVELNRAARVHTRQYIARTFDEHVKAVVHGPCREVLLDLLYLHLNYELLDMAYYLLEDGYLSGQQMDYMKEDMYRLLARLRPNIVSLVDSWDFSDHELRSVLGRRDGHVYENLYKWAQESELNRTQVLPTFEKYLKPMMKQAREQSKL
notes: N-terminal FLAG tag, pcDNA3.1, expressed in HEK293T cells, purified on anti-FLAG magnetic beads; Glu206 active site; C-terminal PTS1 (SKL)
With B3, under setting [1], the Km was found to be 12.64 µM.
